Reference: patent publication US20250326860A1
pEC50: −log10 of the molar value.

Experiments:
[1] = target: human CD3 on cells (Jurkat cells, human T cells) (human) (UniProt P07766); assay: binding to human CD8+ T cells
[2] = target: human CD20 on cells (human B cells; Raji, SU-DHL-8, SU-DHL-4, A3KAW, NAMALWA) (human) (UniProt P11836); assay: binding to Raji cells
[3] = target: human CD3 on cells (Jurkat cells, human T cells) (human) (UniProt P07766); assay: binding to human CD4+ T cells
[4] = target: human CD20 on cells (human B cells; Raji, SU-DHL-8, SU-DHL-4, A3KAW, NAMALWA) (human) (UniProt P11836); assay: flow cytometry, human B cells
[5] = target: cynomolgus monkey CD20 on B cells (cynomolgus monkey) (UniProt M4ZHZ6); assay: flow cytometry, monkey B cells
[6] = target: human CD3δε (human) (UniProt P07766); assay: binding to CD3δ/ε protein dimer
[7] = target: human CD20 on cells (human B cells; Raji, SU-DHL-8, SU-DHL-4, A3KAW, NAMALWA) (human) (UniProt P11836); assay: binding to human B cells
[8] = target: human CD3 on cells (Jurkat cells, human T cells) (human) (UniProt P07766); assay: binding to human CD3+ T cells

Chain of human CD20 on cells (human B cells; Raji, SU-DHL-8, SU-DHL-4, A3KAW, NAMALWA) (human) (P11836 whole entry): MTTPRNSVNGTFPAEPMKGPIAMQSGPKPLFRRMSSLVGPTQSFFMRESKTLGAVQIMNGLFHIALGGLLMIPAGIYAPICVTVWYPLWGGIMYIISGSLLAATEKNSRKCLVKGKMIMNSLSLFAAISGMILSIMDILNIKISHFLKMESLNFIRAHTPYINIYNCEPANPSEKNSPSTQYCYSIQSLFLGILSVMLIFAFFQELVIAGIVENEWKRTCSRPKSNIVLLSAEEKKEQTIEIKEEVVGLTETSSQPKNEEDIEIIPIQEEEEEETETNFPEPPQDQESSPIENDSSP
Chain of human CD3 on cells (Jurkat cells, human T cells) (human) (P07766 23-207): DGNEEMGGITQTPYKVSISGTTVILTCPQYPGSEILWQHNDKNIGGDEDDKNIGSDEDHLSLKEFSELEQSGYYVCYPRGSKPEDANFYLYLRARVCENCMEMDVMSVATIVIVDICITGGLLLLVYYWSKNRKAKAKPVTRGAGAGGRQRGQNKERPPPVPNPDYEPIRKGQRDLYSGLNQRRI

Row | pEC50 [1] | pEC50 [2] | pEC50 [3] | max MFI [4] [MFI] | max MFI [5] [MFI] | pEC50 [6] | pEC50 [7] | pEC50 [8] | Substance
1 | < 5.70 | < 5.10 | < 5.70 | 1650 | 60.4 |  |  |  | IgG1 isotype control antibody
2 | 7.99 | 6.87 | 7.88 |  |  | 8.68 | 6.70 | 7.93 | Plamotamab analog (bispecific antibody)
